This data set deals with H2B-S33. Kind of data set: In vitro kinase assay (γ32P-ATP, SDS-PAGE, autoradiography, scintillation counting). The data set is classed as biochemical, Drosophila. As to conditions: for Turnover values for phosphorylation of H2B-S33: 3 μg enzyme. As for the experimental part:
Kinase reactions were programmed with 1 μg RAP74, 1 μg recombinant histone, 2 μg polynucleosomes, 2 μg histone octamers, or 300 ng histone peptide, and contained 400 ng endogenous TFIID or 250 ng recombinant TAF1 derivatives and 0.25 μCi γ^32P-ATP. Reactions were performed in 20 μl kinase buffer (25 mM Hepes (pH 7.6), 10% glycerol, and 400 mM NaCl) for 25 min at 25° C. Reaction products were analyzed by SDS-PAGE using 8%—(for recombinant proteins), 15%—(for histones), or 18% (for peptides) gels. After electrophoresis, gels were dried and exposed to X-ray film.
To quantify kinase reactions, reactions products were separated by SDS-PAGE and detected by coomassie blue staining. Radiolabeled H2B was detected by autoradiography, excised from the gel, and analyzed by scintillation counting.
To measure the kinase activity of TFIID, TAF1, CTK, and mutant CTK-derivatives, reaction products of in vitro kinase assays were separated by SDS-PAGE and stained with coomassie blue. Radiolabeled H2B, H2BT and controls were excised from the gel and incorporation of radioactivity was determined by scintillation counting. Turnover values for phosphorylation of H2B-S33 were determined by measuring incorporation of radiolabeled phosphate groups into H2B in the presence of 3 μg TAF1, TFIID, or CTK-derivatives and 3 μg H2B or 12 μg nucleosomes. The turnover values were: TFIID (nucleosomes: 3.3/sec; H2B: 2.6/sec); TAF1: (nucleosomes: 2.5/sec; H2B: 2.5/sec); CTK: (nucleosomes: 2.6/sec; H2B: 4.4/sec).

Consider “TAF1: subunit of TFIID that has kinase activity; recombinant Flag-tagged Drosophila protein”, for which the “Turnover values for phosphorylation of H2B-S33” value came out at 2.5 s⁻¹ (substrate 3 μg H2B) and 2.5 s⁻¹ (substrate 12 μg nucleosomes).
Consider “TAF1ΔCTK: TAF1 truncated by stop codon behind amino acid 1728, deleting the CTK downstream of the DBD”, for which the “H2B phosphorylation in vitro (qualitative)” value (autoradiography) is given as “does not phosphorylate H2B in vitro”. In addition, where the note is “radiolabeled H2B, scintillation counting”, the “kinase activity, % of the activity determined for TFIID, TAF1 and CTK” value is recorded as “less than 0.1%”.

These data come from patent publication US20060115482A1, “Modifications of histone proteins as indicators of cell proliferation and differentiation” (The Regents of the University of California, priority 2004, published 2006).
